How the values were obtained:
thrombin [1] = target: T1, thrombin (UniProt P00734;P00734 328-363;364-622); experiment: kinetic exclusion assay (KinExA), two-population competitive fit; hypothetical second FA population (16%); the other 84% fixed at Kd 298 pM; PBS with 0.02% sodium azide and 1 mg/mL BSA; incubation 2 h (50 pM, 1 nM FA) or 6.5 h (10 pM FA); thrombin 5 pM to 1 uM; pH and temperature not stated
thrombin [2] = target: T1, thrombin; experiment: kinetic exclusion assay (KinExA), n-curve analysis; 1:1 model; FA 10 pM, 50 pM, 1 nM; fitted FA activity ~47%; 1:1 fit deviates at high thrombin; PBS with 0.02% sodium azide and 1 mg/mL BSA; incubation 2 h (50 pM, 1 nM FA) or 6.5 h (10 pM FA); thrombin 5 pM to 1 uM; pH and temperature not stated

Binder AGTCCGTGGTAGGGCAGGTTGGGGTGACT (structured_DNA) [29-nt thrombin aptamer (Tasset et al.), fluorescent aptamer FA] has a Kd (thrombin [1]) of 500 nM and a Kd (thrombin [2]) of 0.298 nM.
